Where a chain is given by its changes, count along the chain named.
B1: C2_2E1 (scFv, V domains shown)
VH: EVQLLESGGGLVQPGGSLRLSCAASGFTFSSYYMSWVRQAPGRGLEWVSAISPGSSNKYYADSVKGRFTISRDNSKNTLYLQMNSLRAEDTAVYYCARMTSSFDYWGQGTLVTVSS
VL: QSVLTQPPSASGTPGQRVTISCSGSSSNIGNNDVSWYQQLPGTAPKLLIYSDSQRPSGVPDRFSGSKSGTSASLAISGLRSEDEADYYCGSWDYSLSAYVFGGGTKLTVL
notes: selected from a synthetic human scFv library by phage display; also called anti-IL-33 scFv clone C2_2E1; source: E. coli BL21 (DE3), in cell lysate; purified (Ni-NTA, SEC)
B2: C2_1D5 (scFv, V domains shown)
VH: B1 VH with R43K, M99L, T100L, S102A
VL: B1 VL with N31S, Q54N, S91A, Y94S, A98G
notes: selected from a synthetic human scFv library by phage display; also called anti-IL-33 scFv clone C2_1D5; source: E. coli BL21 (DE3), in cell lysate; purified (Ni-NTA, SEC)
B3: C2_2E12 (scFv, V domains shown)
VH: B1 VH with R43K, M99L, S101L, L111P
VL: B1 VL with N31S, S51A, Q54K, G90A, Y94S
notes: selected from a synthetic human scFv library by phage display; Fab and IgG formats were made but no result is told for them; also called anti-IL-33 scFv clone C2_2E12; C2_2E12 antibody; source: E. coli BL21 (DE3), in cell lysate and purified (Ni-NTA, SEC); scFv also expressed in Expi293F, purified (Ni-NTA, SEC)
B4: C1_1E1 (scFv, V domains shown)
VH: B1 VH with R43K, R98K, M99L, S102A
VL: B1 VL with S23T, N31S, S35T, S53N, Q54K, D83E, S91A, Y94S, A98G
notes: selected from a synthetic human scFv library by phage display; also called anti-IL-33 scFv clone C1_1E1; source: E. coli BL21 (DE3), in cell lysate; purified (Ni-NTA, SEC)
B5: C2_2H5 (scFv, V domains shown)
VH: B1 VH with R43K, R67Q, R98K, M99L, T100S, S101Q
VL: B1 VL with S23T, D33G, V34I, S51D, D52N, Q54H, A85T, G90A, Y94S, A98G
notes: selected from a synthetic human scFv library by phage display; also called anti-IL-33 scFv clone C2_2H5; source: E. coli BL21 (DE3), in cell lysate; purified (Ni-NTA, SEC)
B6: C2_2A10 (scFv, V domains shown)
VH: B1 VH with R43K, R87G, R98K, M99L, T100L, S101T, S102G
VL: B1 VL with D33A, S51D, S53N, Q54H, S91T, Y94S
notes: selected from a synthetic human scFv library by phage display; also called anti-IL-33 scFv clone C2_2A10; source: E. coli BL21 (DE3), in cell lysate; purified (Ni-NTA, SEC)
B7: GST-IL-33 (mature form of interleukin 33, residues 112-270) (domain or fragment, human, UniProt O95760 112-270, looked up)
chain: SITGISPITEYLASLSTYNDQSITFALEDESYEIYVEDLKKDEKKDKVLLSYYESQHPSNESGDGVDGKMLMVTLSPTKDFWLHANNKEHSVELHKCEKPLPDQAFFVLHNMHSNCVSFECKTDPGVFIGVKDNHLALIKVDSSENLCTENILFKLSET
notes: Interleukin-33, human, mature form / IL-1-like cytokine domain, residues 112-270; Synthesised gene in the parallel GST-2 vector; also called GST-IL-33 WT; GST-IL-33_(112)-270; source: E. coli BL21 (DE3), purified (Glutathione Sepharose 4B); not shown: GST, N-terminal, kept

How the values were obtained:
[1] = molecular target: T1, GST-IL-33 (mature form of interleukin 33, residues 112-270) (human, UniProt O95760); test: ELISA; E. coli cell lysates containing overexpressed His6-tagged scFvs against GST-IL-33; the text says ELISA, the legend 'kinetic analysis'; the methods tell of lysates only for BLI (BLItz; lysate scFv on Ni-NTA biosensors, GST-IL-33 at 2, 1, 0.5 and 0.25 uM, Kd = koff/kon); settings: one partner purified
T1 construct: Interleukin-33, human, mature form / IL-1-like cytokine domain, residues 112-270; Synthesised gene in the parallel GST-2 vector; also called GST-IL-33 WT; GST-IL-33_(112)-270; source: E. coli BL21 (DE3), purified (Glutathione Sepharose 4B); not shown: GST, N-terminal, kept

[2] = molecular target: T1, GST-IL-33 (mature form of interleukin …); test: ELISA; GST-IL-33 coated on the plate; serial dilutions of purified scFv (about 8 ng/mL to 0.8 mg/mL), ambient temperature 1 h, PBST; anti-HA-HRP detection, OD450; repeated three times; settings: both partners purified
[3] = molecular target: T1, GST-IL-33 (mature form of interleukin …); test: pull-down; 4 uM GST-IL-33 on Glutathione Sepharose 4B, then 4 uM ST2-Fc, then C2_2E12 (0.4, 4, 40, 400 uM), 30 min at 4 C each step; 50 mM Tris-HCl pH 7.5, 150 mM NaCl; immunoblot (anti-ST2, anti-GST, anti-His6), bands quantified with ImageJ; settings: both partners purified
[4] = molecular target: T2, ST2-Fc fusion protein (ectodomain of ST2, residues 19-321, and Fc from human IgG) (UniProt Q01638 19-321); test: as above; settings: both partners purified
T2 construct: Suppressor of tumorigenicity 2 (ST2) / interleukin 1 receptor-like 1 (IL1RL1), ectodomain, residues 19-321; Synthesised gene in the pSF vector; also called sST2; IL1RL1; source: Expi293F, transfected, purified from supernatant (protein A agarose)
T2 sequence (looked up): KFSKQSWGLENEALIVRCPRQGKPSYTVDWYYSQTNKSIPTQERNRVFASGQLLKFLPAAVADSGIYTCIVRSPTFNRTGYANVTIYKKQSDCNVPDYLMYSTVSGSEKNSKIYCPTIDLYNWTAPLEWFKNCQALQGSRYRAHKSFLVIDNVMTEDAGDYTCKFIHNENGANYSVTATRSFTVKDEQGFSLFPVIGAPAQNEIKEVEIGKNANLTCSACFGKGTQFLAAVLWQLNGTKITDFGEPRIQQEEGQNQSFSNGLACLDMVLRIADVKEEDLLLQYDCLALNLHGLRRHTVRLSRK

Row | Binder | Kd [1] [nM] | further results
1 | B1 | 35 | 
2 | B2 | 36 | 
3 | B3 | 28 | Kd [2]: 38 nM; IL-33:ST2 interaction left at 100-fold molar excess of C2_2E12 (ST2-Fc band relative to that with 0.4 uM C2_2E12) [3]: ~40%
4 | B4 | 48 | 
5 | B5 | 31 | 
6 | B6 | 57 | 
7 | B7 |  | binding result [4]: binds
